Test system: MS2 coat protein
Assay: apparent KD of MS2 coat protein; higher = weaker reporter binding
Details: Eterna round: R107
Protocol: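 RNA-MaP round R107: designed RNA switches with theophylline, tryptophan, arginine or FMN aptamers are transcribed on-chip within common flanks. They are titrated with SNAP-549-labelled MS2 coat protein in RNA-MaP buffer (100 mM Tris pH 7.5, 80 mM KCl, 4 mM MgCl2), without ligand or with the indicated ligand. Median apparent KD per design.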

[1] = input ligand: theophylline 20 uM
[2] = input ligand: theophylline 2 mM
[3] = input ligand: tryptophan 2.4 mM

Row | Sequence | apparent KD of MS2 coat protein (input ligand: arginine 13.2 mM) [nM] | apparent KD of MS2 coat protein [1] [nM] | apparent KD of MS2 coat protein [2] [nM] | apparent KD of MS2 coat protein (input ligand: none) [nM] | apparent KD of MS2 coat protein [3] [nM]
1 | ACACAAUACAUGAGGAUCACCCAUGUAAAACGAGGACCGGUACGGCCGCCACUCGAAUACUGUAAUCCUCGGAAUAUUAAGUGAA [JR_ExcTryptA_Sub002] | 28.7 | 57.1 | 61.6 | – | –
2 | ACACAUGAGGAUCACCCAUGUGCCCAUGAAGGAGCGUGGGAAACCACAGGUAGGUCGCAUGACAUGAGGAUCACCCAUGUUUAUU [Astarte] | 29 | 44.9 | 39.7 | 41.9 | 41.9
3 | ACAUCUUGUACGGCCGCCACUAACAGAUUCAGCGUCGGAGCCAACUACAUGAGGAUCACCCAUGUUAGGACCGGGUACUGUCCAC [theeternabot_exclusion_MS2_Trp_B_47] | 15.8 | 20.7 | 21 | – | –
4 | ACAUGACAACAUGAGGAUCACCCAUGUCAUCGAGGACCGGUACGGCCGCCACUCGGUCAAUAUGAUACUUGUCAUGAACAUGAGG [Exclusion Tryptophan A 2] | 19 | 25.7 | 21.3 | – | –
5 | ACAUGAGGACCGGAUACCAGCCACACAACAUGAGGAUCACCCAUGUCCCAUGUAUGAGGAGGCCCUUGGCAGCCGACAUACAUGA [Exclusion - Theophylline B #1] | 48.2 | 157 | 398 | 77.3 | 78.1
6 | ACAUGAGGAUCACCCAUGUAAUAGCGAGAAGGAGCGCGUAAGGACGCAGGUAGGUCGCUCGUGGUCCGGCCGCAAGGCCGGACCA [#1 Same State - Arginine A Attempt #10 (HarryS)] | 11.1 | 18.6 | 12 | 9.24 | 13.2
7 | ACAUGAGGAUCACCCAUGUACAUCACCCGACGAGGACCGGUACGGCCGCCACUCGGGUAUAUAUAUACAUCGGGUGAUUUUGCAU [#21 Tryptophan A Same State] | 27.4 | 108 | 79.5 | 20.9 | 26.5
8 | ACAUGAGGAUCACCCAUGUACAUGAGGGAAGGAGCGGUACAUGUGCCAGGUAGGUCGCCCAACAGCAUCAGCCAUGUACAACGGA [xxbmullin] | 29 | 87.4 | 69.5 | 56.8 | 52.3
9 | ACAUGAGGAUCACCCAUGUAUUGAGCCGAAGGAGCGGCAGGUAUGCCAGGUAGGUCGCGGUUAGAGUAGAUUGAUGUUCUUUUGU [Exclusion - Arginine A / B] | 12.3 | 14.8 | 16.3 | 12.7 | 12.4
10 | ACAUGAGGAUCACCCAUGUCACGGCACGAUACCAGCUGAUCCGGUGGCCCUUGGCAGCGUGACGUUUGGUCCCGCGGAUCACACG [semullin] | 40 | 101 | – | – | 66.9
11 | ACAUGAGGAUCACCCAUGUGAAGGCACGAUACCAGCUGAUCCCGUGGCCCUUGGCAGCGUCCGGUGUGGUCCGGCGGAUGGGACG [xwxmullin] | 19.1 | 23.3 | 30.9 | 25 | 26.4
12 | ACAUGAGGAUCACCCAUGUGCCGUCUUGAUACCAGACCCGAAGUAGUCCCUUGGCAGCAACUACGUGACGGUCGCGCAUGUGUAG [kaomullin] | 16.3 | 30.3 | – | – | 17.7
13 | ACAUGAGGAUCACCCAUGUUAAACACAGAAGGAGCGUGAAGGAACACAGGUAGGUCGCUGUACUUAUUGAGUAUUCACUCGAUAC [JR_Nu_SSArginiA_Sub028] | 14.9 | 16.5 | 12.8 | 12.5 | 13.3
14 | ACCAGGGUCUGAAGGAGCGCGAUUACAUGAGGAUCACCCAUGUGAAAUGGUAGAUGAUACUCGCAGGUAGGUCGCAGUACUUGGA [Same State Arginine B GF 14] | 53.3 | 164 | 234 | 107 | 215
15 | ACCGCAGGUCCUGAUACCAGAGACAUGAGGAUCACCCAUGUCCGAUCGUCCUGCCUCAGGCUCCCUUGGCAGCAGGGCUUGUCCU [Exclusion Theophylline B GF8] | 14.1 | 20.6 | – | – | 14.8
16 | ACCUGUACGAAAAGUGCAGGACAUGGUAAACGAGGACCGGUACGGCCGCCACUCGAAGAAAACAAGUGGAUCACCCUUGUCCAUG [TrypAS 4 #AlternativeMS2 #Zipper #StaticStem] | 292 | 641 | 2090 | 622 | 1350
17 | ACGACAUGAGGAUCACCCAUGUAAGGUGAUACCAGACGAAGUAAUGUCCCUUGGCAGCACAAGCAUAGUUGCGAUUAUUGUACGA [JR_SSTheophyA_Sub006] | 124 | 574 | – | – | 442
18 | ACGAUACGACAUGAGGAUCACCCAUGUGAUACCAGCGUGGAAACACGCCCUUGGCAGCACAAAUACUCCAAUAACGUAUCGAAAA [MAT - Exclusion Theophlline A - Mod of Eli - D8] | 139 | 211 | – | – | 260
19 | ACGCCCAGGUAGGCUUAAUGGGAUAUGGAAGGAGCGCUGAUGCAAGCAGGUAGGUCGCCAACGGACAUGAGGAUCACCCAUGUAC [Same State - Arginine A (Freestyle 3)] | 15.3 | 22.3 | 23.8 | 20.9 | 19.5

Row | Sequence | apparent KD of MS2 coat protein (input ligand: arginine 13.2 mM) [nM] | apparent KD of MS2 coat protein [1] [nM] | apparent KD of MS2 coat protein [2] [nM] | apparent KD of MS2 coat protein (input ligand: none) [nM] | apparent KD of MS2 coat protein [3] [nM]
20 | ACGCUGAUUGAUUACAAUCAGCGAAAAGAUACCAGUGGGUAAUCCCACCCUUGGCAGCUUAAAUCUGAGGAUCACCCAGGUGGUA [TheoAS 19 #MS2Right #BothOrNeither #AlternativeMS2] | 153 | 382 | 376 | 253 | 728
21 | ACGGACAUGAGGAUCACCCAUGUGGCCGAAGGAGCGGGAAUUAACCCAGGUAGGUCGCGGAAAUUUUUUAAAUUAUUUUAAUUUU [Same State - Arginine A] | 14.4 | 21.5 | 18.7 | 17.1 | 17.3
22 | ACGGAUCGGAAACGAUCCGCGGCGAGGGUGCGAGGACCGGUACGGCCGCCACUCGGGUAACAUGAGGAUCACCCAUGUCCGAAGA [ETA NuPACK+Vienna+Vienna2 #10 Same Structure] | 35.8 | 60.3 | 106 | 55 | 209
23 | ACGUAAUGCAGAAGGAGCGUCUAUGUGUUACAUGAGGAUCACCCAUGUGUUAUGUUAUGUGGACAGGUAGGUCGCUGAAGUACGA [JR_SSArginiB_Sub005] | 45 | 104 | 134 | 127 | 81
24 | ACGUCCAGGUUAAUCGUGGGCAUGGUCGAUACCAGUAUUUUAAUCUACCCUUGGCAGCGACAUGAGGAUCACCCAUGUGCGAUGA [XTheo A #16] | 13.8 | 17.9 | 40.1 | 16.4 | 16.9
25 | ACGUCCCGUUUACUCGUGGGUUAGGUCGAUACCAGUAUUCAAACUUACCCUUGGCAGCGACAUGAGGAUCACCCAUGUGCGAAGA [XTheo A #22] | 19 | 22.9 | – | – | 17.5
26 | ACGUCCGGAUUACUCGUGGGCAUGGUCGAUACCAGUAUUUUAAUCUACCCUUGGCAGCGACAUGAGGAUCACCCAUGUGCGAUGA [XTheo A #20] | 21.5 | 41.6 | 41.3 | 20.5 | 21.8
27 | ACUUCGCAUAGGAAAACUAUGUGAAGAAAUCGAGGACCGGUACGGCCGCCACUCGUCCUCAACAUGAGGAUCACCCAUGUAAUAA [Mat - Exclusion - Trytophan A - D5] | 21 | 24.3 | 23.9 | – | –
28 | AGAAUAUAGUCGGCCGCCACUCUACAAACAUGAGGAUCACCCAUGUUCACAUAGUGGAAACACAUGAGGACCGGGACAUAGGCAU [#17 Same State - Tryptophan B] | 14 | 21.4 | 18.3 | – | –
29 | AGAUUCGACACGGCCGCCACUUGUGGUGGAUUAUCCUAUGUAAGACAUGAGGAUCACCCAUGUACAAGGACCGGGUGUUGAGUCU [XTryp B #22] | 108 | 336 | 385 | – | –
30 | AGCACUGUGACGGCCGCCACUACAUAAGAUGGGUGGUCAGGUUCAUUACAUGAGGAUCACCCAUGUAGGACCGGGUCUCAGUGCA [Omei Trp Exc B A v10] | 7.97 | 16.5 | 10.9 | 9.29 | 7.71
31 | AGCACUGUGACGGCCGCCACUACAUAUAGGGUGGUCAGGUUCAUAAUACAUGAGGAUCACCCAUGUAGGACCGGGUCUCAGUGCA [Omei Trp Exc B A v5] | 12.5 | 14.6 | 14.6 | – | –
32 | AGCAUGUUCAGAAGGAGCGUGCAAGGGUACAUUCGUAGGACAUGAGGAUCACCCAUGUAAGCACAGGUAGGUCGCUGGACAUGCU [Arg B SS t5] | 71.1 | 82.4 | 129 | 98.7 | 107
33 | AGCCACUCGAGUGAUCCUCACGAGUGGCUACGAGGACCGGUACGGCCGCCACUCGAAUUAACAUGAGGAUCACCCAUGUAAUCUA [Brourdmod07] | 22.5 | 227 | 196 | – | –
34 | AGCCAUGGAAACAUGGCGGCGGCAUGAGCGCGAGGACCGGUACGGCCGCCACUCGGGCAACAUGAGGAUCACCCAUGUUCCUCAU [ETA NP+V+V2 #20 +-Same Structure] | 62.5 | 140 | 158 | 101 | 363
35 | AGCCCGGGAGCGGCCGCCACUGGAGGCUUAGCGCGACAUGAGGAUCACCCAUGUGUGCCCGGCGUUAGGACCGGGCUCGCGUGGU [#1 Same State - Tryptophan B Attempt #22 (HarryS)] | 15.3 | 52.7 | 46.1 | 31.2 | 35.2
36 | AGCCCUGUACUAGAUACCAGCUACAUGAGGAUCACCCAUGUACGAUAAGACUGUCCAUGUAGCCCUUGGCAGCUGCUCGCAUGUA [#13 Exclusion-TheophyllineB] | 24.1 | 41.3 | – | – | 29.2
37 | AGCCGGAUUACGGCCGCCACUGUAGACGUGACGAAAGUCGCGUCAACAUGAGGAUCACCCAUGUACAGGACCGGGUGGUCCGGCA [Omei Trp B SS A v3] | 7.09 | 11.2 | 8.87 | 9.61 | 8.97
38 | AGCCUAUUACAUGAGGAUCACCCAUGUGAUACCAGUCAGGAAACUGACCCUUGGCAGCGCAUGAGGAUCACCCAUGCGCGAGGCA [Omei Theo A Exc A v4] | 10.1 | 12.9 | – | – | 10.6

Source: the supplement of paper PMC9170038
